The values that follow come from PMC4004294.

Where two headings read alike, the source gives them in different places.

Assay [1] has as its target glutathione S-transferase (GST) tagged HIV-1 IN (HIV-1). Put plainly: AlphaScreen or HTRF. A general note: In Alpha technology, singlet oxygen from a donor bead excites a nearby acceptor bead.
Assay [2] deals with HIV-1 integrase fused to mVenus (IN-mVenus), transincorporated into virions as Vpr-IN-mVenus (HIV-1). As to the kind of experiment: FRET or BRET. (In general: In BRET a luciferase serves as donor, and the signal depends on an acceptor being close.)
The target is the same in assay [3]. Put plainly: FRET or BRET. The source holds these as a separate data set.

In turn, “HIV-1 IN point mutant IN(W108G)-His6 (enzyme)” yielded a fold lower AlphaScreen signal than wild-type IN in assay [1] of 4 fold.
Regarding “HIV-1 integrase fused to mTFP1 (IN-mTFP1), transincorporated into virions as Vpr-IN-mTFP1 (enzyme)”, the results for the FRET ratio (r FRET) in assay [2] and in assay [3] were 1.27 and 1.3, respectively.
